According to the nanobody polyreactivity screen of Harvey et al. (2022):

Assay: yeast display, Sf9 membrane polyspecificity reagent, FACS + sequencing; frameworks hold sequencing errors
Outline: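 A synthetic nanobody library was expressed on Saccharomyces cerevisiae BJ5465 by galactose induction for 36–48 hours. The library was stained for 1 hour at 4 °C with 10% biotinylated, detergent-solubilized Sf9 membrane reagent and enriched with streptavidin microbeads before FACS. Low and high (top ~1%) gates were set on anti-HA fluorescence for expression and streptavidin fluorescence for reagent binding, and each polyreactivity label reflects the gate of origin.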

Row | Sequence | polyreactivity (PSR sort gate)
1 | QVQLVESGGGLVQAGGSLRLSCAASGFTFVRNAMGWYRQAPGKERELVAAISYRGGSTYYADSVKGRFTISRDNAKNTVYLQMNSLKPEDTAVYYCAAEAGYSSRRYYWGQGTQVTVSS | high polyreactivity
2 | QVQLVESGGGLVQAGGSLRLSCAASGRTFSSNAMGWYRHAPGKERELVAAISFRGGRTFYADSVKGRFTISRDNAKNTGFLQMNSLKPEDSAVYYCNAVPETRSYDYWGQGTQVTVSS | high polyreactivity
3 | QVQLVESGGGLVQAGGSLRLSCAASGSTFAYNAMGWYRQAPGKERELVASITVSVGSTYYADSVKGRYTISRDNAKNTVYLQMNRLKPVDTAVYYCAARVTLRSSTYWVPRTGYYYWGQGTQVTVSS | low polyreactivity
4 | QVHLVESGGGLVQAGGSLRLSCAASGSIFGSQNAMGWYRQAPGKERELVAAYYTARGARTYYADSVKGRFTISRDNAKNTVYLQMNSLKPEDTAVYYCAPRRYGRYRYDYWGQGTQVTVSS | low polyreactivity
5 | QVQLVESGGRLVQAGGSLRLSCAASGFTFRYYAMGWYRQAPGKERELVAAINSGGSTNFADSVKGRFTISRDNAKNTVYLQMNSLKPEDTAVYYCAKRGRRGIVYLGSAEMDYWGQGTQVTVSS | low polyreactivity
6 | QVKLVESGGGLVQAGGSLRLSCAASGSTMSVNAMGWYRQAPGKERELVAAIDFDGGDTYYADSVKGRFTISRDNAKNTVYFQMNSLKPEDTAVYYCAADIGGQYDYLADDYWGQGTQVTVSS | low polyreactivity
7 | QDQLVESGGGLVQAGGSLRLSCAASGFTFVINDMGWYRQAPGKERELVADITSGGDTYYADSVKGRFTISRDNAKNTDYLQMNSLKPEDTAVYYCAADIYPDWIYLLYGYWGQGTQVTVSS | low polyreactivity
8 | QVKLVESGGGLVQAGGSLRLSCAASGRISFYYAMGWYRQAPGKERELVATISSSGGSTHYADSVKGRFTISRDNAKNTVYLQMNSLKPEDTAVYYCARDDSERIWLEQSGYWGQGTQVTVSS | low polyreactivity
9 | QVQLVESGGGLVQAGGSLRLSCAASGSIFYYNAMGWYRQAPGKERELVATITQSGGGRTYYADSVKGRFTISRDNAKNTVYLQMNSLKPEDTAVYYCAAKPDKYKSYRYGYWGQGTQVTVSS | low polyreactivity
10 | QVQLVESGGGLVQAGGSLRLSCAASGSIFKYYAMGWYRQAPGKERELLADISFGGDSTYYADSVKGRFTISRDNAKNTVYLQMNSLIPEDTAVYYCAAAPYFWFVEYDYWGQGTQVTVSS | low polyreactivity
11 | QVQLVESGGGLVQAGGSLRLSCAASGRIFQGNAMGWYRQAPGKERELVAAIDWSGGGSTYADSVKGRFTISRDNAKNTVYLQMNSLKPEDTAVYYCARDVVWGEDYWGQGTQVTVSS | low polyreactivity
12 | QVQLVESGGGLVQAGGSLRLSCAASGRIFKWNAMGWYRQAPGKERELVAAIRWSGTSTYADSVKGRFTISRDNAKNTVYLQMNSLKPEDTAVYYCAASKRYTVGVRAFGKHDYWGQGTQVTVSS | low polyreactivity
13 | QVQLVESGGGLVQARGSLRLSCAASGNIFYRYAMGWYRQATGKERELVAAISFSGGGTYYADSVKGRFTISRDNAKNTVYLQMNSLKPEDTAVYYCAAYRRGCYDYWGQGTQVTVSS | high polyreactivity
14 | QVQLVESGGGLVQAGGSLRLRCAASGSTFVYNGMGWYRQAPGKERELVATISSTGSTNYADSVKGRFTISRDNAKNTVFLQMNSLKPEDTAVYYCATEYITYLAYDYWGQGTQVTVSS | low polyreactivity
15 | QVHLVESVGGLVQAGGSLRLSCAASGRIFRYYAMGWYRQAPVKAWELVATISQRGGTYYADSVKGRFTISRDNAKNTVYLQMNSLKPEDTAVYYCAARINTYRSYYPSSRSDYWGQGTQVTVSS | high polyreactivity
16 | QVQLVESGGGLVQAGGSLRLSCAASGRTFWRYAMGWYRQAPGKERELVADISNSDTSTYYADSVKGRFTISRDNAKNSVYLQMKSLKPEDTAVYYCAARPFRFRLSDKYNYWGQGTQVTVSS | high polyreactivity
17 | QDQLVESGGGLVQAGGSHRLSCAASGSTFGVNDMGWYRQAPGKERELVARITGGGSTYYADSVKGRFTISRDNAKNTVYLQMNSLKPEDTAVYYCNAAFWAPQATGYYYWGQGTQVTVSS | low polyreactivity
18 | QVQLVESGGGVVQAGGSLRLSCAASGSIFNRYAMGWYRQAPGKERELVAAISTHTGTTYYADSVKGRFTISRDNAKNTVYLQMNSLKPEDTAVYYCNAATYGGRYYYWGQGTQVTVSS | high polyreactivity
19 | QVQLVESGGGLVQAGGSLRLSCAASGRTFYIYAMGWYRQAPGNERELVADISSSDDSTYYADSEKGRFTISRDNAKNTVYLQMNSLKPEDTAVYYCAAELYYFFDEHYYWGQGTQVTVSS | low polyreactivity
20 | QVQLVESGGGLVQAGGSLRLSCAASGSTFSPYDMGWYRQAPGKERELVAAITYRGGSTYYADSVKGRFTISRDNAKNTVYLQMNSLKPEDTAVYYCAAEIYQYSYGGTGWTLDWGQGTQVTVSS | low polyreactivity
21 | QVQLVESGGGLVQAGGSLRLSCAASGRIFSQNAMGWYRQAPGKERELVAVISRGGSTNYADSVKGRFTISRDNAKNTVYLQMNSLKPEDTAVYYCAADYAYIRSVWKWFIGDYWGQGTQVTVSS | low polyreactivity
